Measured values as given in the supplement of paper PMC10567573.
± gives the standard deviation.

Assay: protein stability index of a GFP-peptide fusion (GPS, HEK-293T) (PSI 1-6); higher = more stable
Details: c terminus: a fixed tail appended
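Note: 24-mer peptide tiles fused after GFP, lentivirally expressed, FACS-sorted into six equal bins by GFP/DsRed ratio, decoded by Illumina sequencing, PSI is the read-weighted mean bin number.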

| Sequence | protein stability index (treatment: DMSO) | protein stability index (treatment: MLN4924 1 uM, 8 h) |
| --- | --- | --- |
| GVFGFFATIVFATDFYLIFNDVAK [CMTM3] | 2.75 ± 0.27 | 3.44 ± 0.43 |
| GVTGWCTGFIFQKVGKLAATAVGG [FUNDC2] | 2.17 ± 0.048 | 2.48 ± 0.74 |
| GVVQALIVGYAFHFPHLLSPQIQR [TMEM175] | 3.53 ± 0.28 | 3.25 ± 0.25 |
| GYFAFMLFRKRLGSMILAFRPRPN [GDAP1] | 2.69 ± 0.79 | 2.37 ± 0.57 |
| HCNVSNILHMNGSQSSTYRGTYEQ [ZNF396] | 3.17 ± 0.21 | 3.24 ± 0.088 |
| HCTGNEATLAACTSNGWGVTDCKH [LOXL2] | 3.98 ± 0.24 | 4.21 ± 0.28 |
| HCTVKLRQTTGLMEYCLEVIKEND [TRIM9] | 3.07 ± 0.29 | 3.32 ± 0.37 |
| HHPEVPQRILRIMCRLEELGLAGR [HDAC6] | 2.09 ± 0.088 | 2.52 ± 0.7 |
| HLEIDDMYTPAYGDFDFDEVKFPN [MYORG] | 4.49 ± 0.12 | 4.26 ± 0.19 |
| HLFLLGYSDGADDTFAAYTREQLY [MCOLN1] | 2.08 ± 0.29 | 2.35 ± 0.18 |
| HLVIQNLFEGMIWFLVPISSVICN [CDS1] | 2.96 ± 0.2 | 3.25 ± 0.41 |
| HLYPADFRFDKPKKSRSPASAEAP [ZNF511] | 3.38 ± 0.52 | 3.83 ± 0.45 |
| HPDIFLPSEICDRLVNEYVELVNA [ZER1] | 2.56 ± 0.17 | 2.97 ± 0.35 |
| HPGEHEVGEPEFHYIAGAHGNEVL [CPXM2] | 5.1 ± 0.29 | 4.98 ± 0.31 |
| HPLPTVIIVNLLWFIHLVFVVLAF [TMEM192] | 3.37 ± 0.063 | 3.02 ± 0.7 |
| HQRIPQSVRILGSLVAILLVFLIT [SLC29A1] | 2.1 ± 0.37 | 2.33 ± 0.25 |
| HRVLQRLEQRRQQASEREAPSIEQ [FCHSD1] | 5.09 ± 0.25 | 4.99 ± 0.26 |
| HSLYRRTGASFQKAQQEFAAGVFS [SCAMP3] | 2.81 ± 0.14 | 2.85 ± 0.14 |
| HTKELEDKVIELHKSHRGMTPAEA [EPB41L3] | 5.2 ± 0.24 | 5.13 ± 0.16 |
| HVHDPHGQVIWGMSWAKLARQATN [FBXO39] | 2.58 ± 0.32 | 2.94 ± 0.21 |
| IAGNKCDLIDVREVMERDAKDYAD [RAB22A] | 4.98 ± 0.22 | 5.06 ± 0.11 |
| IARDQTKSIVEKIQAKLPGIAKKK [RTN3] | 3.8 ± 0.15 | 3.75 ± 0.32 |

| Sequence | protein stability index (treatment: DMSO) | protein stability index (treatment: MLN4924 1 uM, 8 h) |
| --- | --- | --- |
| ICLMCVHSLERAGSKQYSAAIAFT [SMG5] | 2.58 ± 0.33 | 2.42 ± 0.78 |
| ICYLPHWMMQNLLLEEGGLVQVES [UFD1] | 2.65 ± 0.34 | 2.7 ± 0.5 |
| IDKGDIPDLTQAPSSLMETLEQHL [SNAP91] | 4.11 ± 0.22 | 4.08 ± 0.33 |
| IDPLLYMTEWFMCAFSRTLPWSSV [TBC1D10A] | 3.43 ± 0.23 | 3.16 ± 0.27 |
| IEIATYRKLLEGEESRISVPVHSF [PRPH] | 2.47 ± 0.26 | 2.47 ± 0.21 |
| IEIEDEAEKWQKEKDRIKSFTTNE [TRIM29] | 4.94 ± 0.17 | 4.96 ± 0.16 |
| IELANIRDEVAFHTAKCEKLQKEK [MTUS2] | 4.31 ± 0.3 | 4.46 ± 0.44 |
| IELLTGETWNPFKLQYQLRNVRER [GOLPH3L] | 2.29 ± 0.27 | 2.49 ± 0.21 |
| IFRSYSRGAQGILLVYDITNRWSF [RAB40C] | 2.52 ± 0.7 | 2.61 ± 0.73 |
| IFSVLNSDDAAAPALETQPQGDEE [SMOC2] | 5.22 ± 0.23 | 5.29 ± 0.44 |
| IHKGEKPYQCSQCSKSYSRRSFLI [ZSCAN9] | 2.46 ± 0.75 | 2.12 ± 0.42 |
| IIDSSLEDITYVLKPTFTKQQIAN [USP39] | 2.69 ± 0.26 | 2.8 ± 0.24 |
| IIPQVPLFNILAKFNGITEKEYKT [USP39] | 2.41 ± 0.28 | 2.49 ± 0.28 |
| IKIFKYISFNKTMTQLSSTLARCA [PKD2L1] | 2.37 ± 0.15 | 2.26 ± 0.19 |
| IKIRPGEFEQFESTIGFKLPNHRA [EPB41L3] | 2.64 ± 0.03 | 2.75 ± 0.63 |
| IKLIDFGIAHKIEAGNEFKNIFGT [DAPK3] | 2.47 ± 0.31 | 2.32 ± 0.21 |
| IKMMQAVRQAFQDQDDRRTWDGRP [GFOD1] | 3.21 ± 0.26 | 3.6 ± 0.19 |
| IKSIVEASKGCQLGKTEQGFENMD [TRIM63] | 4.54 ± 0.31 | 4.38 ± 0.33 |
| ILALELICSLICLLIYTVKIRRFN [TMEM192] | 3.42 ± 0.29 | 3.2 ± 0.41 |
| IMNIEPAILVMHHSMKPHPAITAT [INTS3] | 2.24 ± 0.38 | 2.22 ± 0.16 |
| IPLYPLGCLAEAVSVIQSIPIFNE [HACD3] | 2.7 ± 0.47 | 2.97 ± 0.81 |
| IQDLCEMLGKYGSSLEFTELLTLV [CASP6] | 2.34 ± 0.34 | 2.15 ± 0.26 |

| Sequence | protein stability index (treatment: DMSO) | protein stability index (treatment: MLN4924 1 uM, 8 h) |
| --- | --- | --- |
| IQENQRNLYEEGRTAFLWRGNVVL [TRIM43] | 2.21 ± 0.43 | 2.61 ± 0.37 |
| IQKNYECANFGDQGITMGCWDMYR [LOXL2] | 2.06 ± 0.45 | 2.13 ± 0.25 |
| IRDLDVVVVSVAGAFRKGKSFILD [ATL3] | 2.3 ± 0.64 | 2.34 ± 0.45 |
| IRQEFDKLREFLRVEEQAILDAMA [TRIM35] | 2.91 ± 0.31 | 2.97 ± 0.69 |
| IRTKLNYNPPKDDGSTYKIELEGI [GAN] | 2.76 ± 0.1 | 2.84 ± 0.39 |
| IRTSERVTLIVDNTRFVVDPSIFT [BTBD10] | 2.35 ± 0.41 | 2.36 ± 0.45 |
| ISDNPERYSTNLSNHVDDFTTFRG [EDNRA] | 3.87 ± 0.34 | 3.95 ± 0.42 |
| ISRKLGDMRNSATFKSFEDRVGTI [TPD52L2] | 2.98 ± 0.22 | 3.07 ± 0.24 |
| ISTSGQAGTSSHGCWAWPLAGLSV [PXN] | 2.33 ± 0.47 | 2.25 ± 0.26 |
| ISVEGINHDIRTANDGDYWRLLNP [CPXM2] | 2.64 ± 0.44 | 2.7 ± 0.44 |
| ITDSYPVVKRREGPAGHSKGELAP [POLD4] | 3.42 ± 0.47 | 4.21 ± 0.45 |
| ITERDKRPEGYNLKDEEGKLKDLS [PPP2R2C] | 5.51 ± 0.23 | 5.54 ± 0.13 |
| ITNTDVDCLKACQEQIEAVLLNSL [CCND2] | 2.73 ± 0.2 | 2.86 ± 0.39 |
| ITPQGVAMRAGVLADDHLIEVNGE [PDZK1] | 4.72 ± 0.095 | 4.78 ± 0.22 |
| IYEFWENSSVWNSHLQTNYSKTFQ [NECAB1] | 2.28 ± 0.31 | 2.16 ± 0.26 |
| IYSLRNKEFKSALCKIVRRTISLL [OR10K2] | 2.74 ± 1.2 | 2.17 ± 0.49 |
| KADTKGFCNISLFEDLPLQEPQSP [PLAGL1] | 4.46 ± 0.14 | 4.61 ± 0.12 |
| KAIKQKLWEALCSQGAISEGAQRD [C22orf31] | 2.72 ± 0.27 | 2.85 ± 0.065 |
| KCSDCGKAFLTKTMLIVHHRTHTG [ZNF649] | 2.84 ± 0.27 | 3.05 ± 0.45 |
| KDIAHFWELGGGTSLLDLISIPIT [DYNC2LI1] | 2.54 ± 0.54 | 2.07 ± 0.24 |
| KDSVMQQNLVYYRFHRARWGLEEE [P3H4] | 2.51 ± 0.28 | 2.43 ± 0.085 |
